Measurements: patent US20190134153A1, “IMMUNOMODULATORY EFFECT OF INHALED KINASE INHIBITOR PEPTIDES IN LUNG” (MOERAE MATRIX, INC., priority 2017, published 2019)

Assays:
Test in all cases: Kinase Profiling Assay
Assay type in all cases: biochemical
Conditions in all cases: 100 μM
EGFR(L861Q)(h) = EGFR(L861Q)(h) (Homo sapiens, UniProt P00533, L861Q)
EphB4(h) = target: T1, EphB4(h) (Homo sapiens, UniProt P54760)
T1 sequence (P54760 16-987): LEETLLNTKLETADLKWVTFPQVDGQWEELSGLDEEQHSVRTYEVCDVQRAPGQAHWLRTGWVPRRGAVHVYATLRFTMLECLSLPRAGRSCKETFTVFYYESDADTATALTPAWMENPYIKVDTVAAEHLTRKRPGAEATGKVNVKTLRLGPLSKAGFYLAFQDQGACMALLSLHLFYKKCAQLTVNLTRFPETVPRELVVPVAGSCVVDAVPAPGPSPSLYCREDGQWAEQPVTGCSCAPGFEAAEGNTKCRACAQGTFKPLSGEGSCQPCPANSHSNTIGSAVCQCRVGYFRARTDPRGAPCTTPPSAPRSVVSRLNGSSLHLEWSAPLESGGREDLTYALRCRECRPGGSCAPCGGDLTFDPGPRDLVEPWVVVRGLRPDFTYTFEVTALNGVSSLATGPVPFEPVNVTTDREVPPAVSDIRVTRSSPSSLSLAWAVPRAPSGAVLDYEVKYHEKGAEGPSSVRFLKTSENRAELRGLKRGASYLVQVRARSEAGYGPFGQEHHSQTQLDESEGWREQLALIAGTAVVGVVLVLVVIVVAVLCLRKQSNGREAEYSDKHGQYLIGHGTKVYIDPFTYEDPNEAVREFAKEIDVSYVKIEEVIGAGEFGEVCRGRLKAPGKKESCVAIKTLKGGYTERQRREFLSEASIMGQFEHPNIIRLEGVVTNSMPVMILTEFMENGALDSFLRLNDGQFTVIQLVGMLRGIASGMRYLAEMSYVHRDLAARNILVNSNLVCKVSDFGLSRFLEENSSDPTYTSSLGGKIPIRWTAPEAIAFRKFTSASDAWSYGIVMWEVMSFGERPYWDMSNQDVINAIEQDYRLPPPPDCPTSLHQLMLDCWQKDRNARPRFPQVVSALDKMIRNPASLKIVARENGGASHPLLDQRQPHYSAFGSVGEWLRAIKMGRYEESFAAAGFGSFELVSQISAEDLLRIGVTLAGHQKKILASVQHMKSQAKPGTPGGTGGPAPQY

FGFR1(V561M)(h) = FGFR1(V561M)(h) (Homo sapiens, UniProt P11362, V561M)
Sequence of FGFR1(V561M)(h) (P11362 22-822 V561M): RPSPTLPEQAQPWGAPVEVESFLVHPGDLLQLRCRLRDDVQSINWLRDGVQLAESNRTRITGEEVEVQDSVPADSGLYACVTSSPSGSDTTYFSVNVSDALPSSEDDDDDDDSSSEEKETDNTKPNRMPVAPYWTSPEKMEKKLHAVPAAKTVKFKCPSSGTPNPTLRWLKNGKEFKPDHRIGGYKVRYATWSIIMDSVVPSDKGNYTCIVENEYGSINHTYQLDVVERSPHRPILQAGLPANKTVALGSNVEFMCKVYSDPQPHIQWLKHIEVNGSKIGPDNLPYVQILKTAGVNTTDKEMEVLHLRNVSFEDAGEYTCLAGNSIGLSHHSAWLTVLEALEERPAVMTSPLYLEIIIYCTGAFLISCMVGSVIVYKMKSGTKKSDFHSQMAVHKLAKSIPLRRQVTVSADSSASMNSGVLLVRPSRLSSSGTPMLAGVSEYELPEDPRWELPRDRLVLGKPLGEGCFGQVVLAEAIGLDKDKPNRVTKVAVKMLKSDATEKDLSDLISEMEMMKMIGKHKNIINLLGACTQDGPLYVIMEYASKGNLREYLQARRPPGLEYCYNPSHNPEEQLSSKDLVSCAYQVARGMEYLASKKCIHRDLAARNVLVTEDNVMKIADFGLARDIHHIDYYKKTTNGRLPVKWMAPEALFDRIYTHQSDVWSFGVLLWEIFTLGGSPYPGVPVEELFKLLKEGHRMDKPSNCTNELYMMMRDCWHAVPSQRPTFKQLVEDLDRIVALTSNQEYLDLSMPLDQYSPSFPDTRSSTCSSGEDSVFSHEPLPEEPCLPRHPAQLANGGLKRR

Hck(h) activated = Hck(h) activated (Homo sapiens, UniProt P08631)
Sequence of Hck(h) activated (P08631 whole entry): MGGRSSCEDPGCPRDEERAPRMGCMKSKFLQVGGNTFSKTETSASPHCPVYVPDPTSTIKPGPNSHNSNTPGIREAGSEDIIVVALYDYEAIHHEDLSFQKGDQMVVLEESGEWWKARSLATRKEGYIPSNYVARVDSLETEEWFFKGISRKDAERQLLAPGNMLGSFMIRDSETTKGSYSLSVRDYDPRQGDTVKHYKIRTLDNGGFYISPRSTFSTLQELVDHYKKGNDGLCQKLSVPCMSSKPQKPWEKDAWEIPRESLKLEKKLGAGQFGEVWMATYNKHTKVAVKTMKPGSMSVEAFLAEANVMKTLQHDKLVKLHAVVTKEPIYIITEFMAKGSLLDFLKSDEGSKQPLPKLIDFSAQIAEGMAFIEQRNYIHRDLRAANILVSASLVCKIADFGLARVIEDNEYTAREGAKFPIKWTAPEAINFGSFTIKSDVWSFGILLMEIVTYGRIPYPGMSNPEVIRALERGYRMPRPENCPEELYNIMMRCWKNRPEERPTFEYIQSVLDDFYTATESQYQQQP

LIMK1(h) = LIMK1(h) (Homo sapiens, UniProt P53667)
Sequence of LIMK1(h) (P53667 whole entry): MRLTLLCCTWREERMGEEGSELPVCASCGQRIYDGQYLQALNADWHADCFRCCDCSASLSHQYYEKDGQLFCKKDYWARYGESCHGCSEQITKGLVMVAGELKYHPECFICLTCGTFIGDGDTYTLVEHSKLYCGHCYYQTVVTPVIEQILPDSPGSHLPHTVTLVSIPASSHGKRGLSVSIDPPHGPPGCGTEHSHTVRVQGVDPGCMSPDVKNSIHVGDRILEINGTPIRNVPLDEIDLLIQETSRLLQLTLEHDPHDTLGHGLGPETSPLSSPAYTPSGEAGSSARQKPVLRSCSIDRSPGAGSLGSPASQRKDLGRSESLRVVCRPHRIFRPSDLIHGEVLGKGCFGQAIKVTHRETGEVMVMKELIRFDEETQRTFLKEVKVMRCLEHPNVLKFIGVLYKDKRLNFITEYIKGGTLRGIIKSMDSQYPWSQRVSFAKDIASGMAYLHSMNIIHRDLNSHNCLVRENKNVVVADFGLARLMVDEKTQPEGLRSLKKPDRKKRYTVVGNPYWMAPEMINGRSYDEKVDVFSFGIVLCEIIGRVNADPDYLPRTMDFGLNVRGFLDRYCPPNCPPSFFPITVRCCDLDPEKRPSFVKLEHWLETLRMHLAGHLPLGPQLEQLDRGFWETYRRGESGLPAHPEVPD

MSK2(h) = MSK2(h) (Homo sapiens, UniProt O75676)
Sequence of MSK2(h) (O75676 whole entry): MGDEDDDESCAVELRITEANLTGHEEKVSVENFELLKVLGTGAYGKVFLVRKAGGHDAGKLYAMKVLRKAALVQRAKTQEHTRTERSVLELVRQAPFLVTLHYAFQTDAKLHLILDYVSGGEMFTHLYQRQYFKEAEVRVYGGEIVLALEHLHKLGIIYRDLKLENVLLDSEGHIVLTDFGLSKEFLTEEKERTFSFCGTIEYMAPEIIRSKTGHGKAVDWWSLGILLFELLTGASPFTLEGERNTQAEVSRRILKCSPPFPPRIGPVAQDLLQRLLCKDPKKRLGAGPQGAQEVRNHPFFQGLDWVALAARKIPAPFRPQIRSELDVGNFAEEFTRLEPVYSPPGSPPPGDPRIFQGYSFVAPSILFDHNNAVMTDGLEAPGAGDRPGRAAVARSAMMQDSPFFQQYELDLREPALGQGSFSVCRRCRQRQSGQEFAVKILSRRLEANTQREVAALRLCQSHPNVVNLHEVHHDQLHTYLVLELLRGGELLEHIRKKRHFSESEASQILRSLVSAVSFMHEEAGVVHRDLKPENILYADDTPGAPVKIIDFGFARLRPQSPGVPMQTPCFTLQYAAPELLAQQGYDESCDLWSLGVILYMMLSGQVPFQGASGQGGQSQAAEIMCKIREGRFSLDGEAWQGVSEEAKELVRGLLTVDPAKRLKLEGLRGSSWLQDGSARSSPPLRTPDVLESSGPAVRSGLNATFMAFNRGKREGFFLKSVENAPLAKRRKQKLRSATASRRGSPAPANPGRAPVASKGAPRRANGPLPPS

NEK6(h) = NEK6(h) (Homo sapiens, UniProt Q9HC98)
Sequence of NEK6(h) (Q9HC98 whole entry): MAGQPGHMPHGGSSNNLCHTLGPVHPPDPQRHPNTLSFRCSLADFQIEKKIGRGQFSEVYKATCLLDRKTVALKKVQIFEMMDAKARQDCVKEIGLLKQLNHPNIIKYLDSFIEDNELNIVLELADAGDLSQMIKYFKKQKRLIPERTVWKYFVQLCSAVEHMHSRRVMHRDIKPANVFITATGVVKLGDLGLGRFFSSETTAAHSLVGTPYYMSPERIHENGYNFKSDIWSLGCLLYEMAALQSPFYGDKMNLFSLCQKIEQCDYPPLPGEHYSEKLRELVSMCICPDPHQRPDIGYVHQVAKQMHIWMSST

NEK7(h) = NEK7(h) (Homo sapiens, UniProt Q8TDX7)
Sequence of NEK7(h) (Q8TDX7 whole entry): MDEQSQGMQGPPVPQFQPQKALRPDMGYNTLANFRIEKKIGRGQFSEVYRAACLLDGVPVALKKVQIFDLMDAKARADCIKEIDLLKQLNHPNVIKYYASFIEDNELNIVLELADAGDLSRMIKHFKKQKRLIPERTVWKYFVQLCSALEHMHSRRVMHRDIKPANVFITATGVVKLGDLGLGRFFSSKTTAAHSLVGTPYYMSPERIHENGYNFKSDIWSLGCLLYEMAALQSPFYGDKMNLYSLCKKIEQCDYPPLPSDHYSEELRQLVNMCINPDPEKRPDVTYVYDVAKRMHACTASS

PAK4(h) = PAK4(h) (Homo sapiens, UniProt O96013)
Sequence of PAK4(h) (O96013 whole entry): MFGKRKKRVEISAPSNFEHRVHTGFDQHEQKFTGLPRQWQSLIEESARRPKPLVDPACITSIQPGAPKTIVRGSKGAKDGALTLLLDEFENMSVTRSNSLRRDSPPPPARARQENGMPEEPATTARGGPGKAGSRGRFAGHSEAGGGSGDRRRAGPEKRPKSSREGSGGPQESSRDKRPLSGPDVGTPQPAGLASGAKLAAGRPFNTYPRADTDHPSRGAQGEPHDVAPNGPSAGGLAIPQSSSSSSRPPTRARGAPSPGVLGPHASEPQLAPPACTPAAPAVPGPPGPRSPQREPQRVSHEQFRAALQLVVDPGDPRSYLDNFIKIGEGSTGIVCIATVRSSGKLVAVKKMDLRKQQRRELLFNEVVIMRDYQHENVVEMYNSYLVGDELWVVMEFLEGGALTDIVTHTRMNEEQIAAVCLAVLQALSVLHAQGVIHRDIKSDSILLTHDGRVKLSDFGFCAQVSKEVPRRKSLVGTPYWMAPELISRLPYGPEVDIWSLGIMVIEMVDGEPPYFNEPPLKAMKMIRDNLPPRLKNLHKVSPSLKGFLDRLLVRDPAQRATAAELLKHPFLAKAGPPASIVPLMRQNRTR

PKCα(h) = PKCα(h) (Homo sapiens, UniProt P17252)
PKD2(h) = target: T2, PKD2(h) (Homo sapiens, UniProt Q9BZL6)
T2 sequence (Q9BZL6 1-878): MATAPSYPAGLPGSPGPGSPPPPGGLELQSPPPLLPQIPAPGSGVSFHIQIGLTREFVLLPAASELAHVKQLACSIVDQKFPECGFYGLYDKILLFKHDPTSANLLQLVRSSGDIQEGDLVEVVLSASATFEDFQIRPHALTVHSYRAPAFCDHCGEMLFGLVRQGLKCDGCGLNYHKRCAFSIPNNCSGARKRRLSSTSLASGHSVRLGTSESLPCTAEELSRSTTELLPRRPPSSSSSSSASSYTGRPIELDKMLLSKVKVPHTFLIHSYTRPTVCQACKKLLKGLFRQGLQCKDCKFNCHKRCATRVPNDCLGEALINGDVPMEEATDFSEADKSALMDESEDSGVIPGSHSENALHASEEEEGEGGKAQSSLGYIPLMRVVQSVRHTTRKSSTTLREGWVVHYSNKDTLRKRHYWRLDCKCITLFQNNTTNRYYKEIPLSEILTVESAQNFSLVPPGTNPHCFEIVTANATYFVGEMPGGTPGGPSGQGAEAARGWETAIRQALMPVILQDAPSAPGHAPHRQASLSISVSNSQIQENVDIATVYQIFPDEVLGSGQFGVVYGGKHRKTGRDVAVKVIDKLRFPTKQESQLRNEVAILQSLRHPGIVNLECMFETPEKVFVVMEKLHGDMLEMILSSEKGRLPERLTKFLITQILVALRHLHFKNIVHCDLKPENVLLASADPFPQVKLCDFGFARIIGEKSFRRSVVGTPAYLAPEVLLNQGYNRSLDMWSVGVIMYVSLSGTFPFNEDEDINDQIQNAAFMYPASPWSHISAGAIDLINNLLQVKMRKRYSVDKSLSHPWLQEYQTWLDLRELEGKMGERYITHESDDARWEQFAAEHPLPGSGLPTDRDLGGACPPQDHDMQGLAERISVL

Met(Y1248H)(h) = Met(Y1248H)(h) (Homo sapiens, UniProt P08581, Y1230H)

Row | Sequence | % activity (EGFR(L861Q)(h)) | % activity (EphB4(h)) | % activity (FGFR1(V561M)(h)) | % activity (Hck(h) activated) | % activity (LIMK1(h)) | % activity (MSK2(h)) | % activity (NEK6(h)) | % activity (NEK7(h)) | % activity (PAK4(h)) | % activity (PKCα(h)) | % activity (PKD2(h)) | % activity (Met(Y1248H)(h))
1 | FAKLAARLYRKALARQLGVAA [MMI-0300] | 25% | 44% | 74% | 82% | 88% | 56% | 82% | 84% | 94% | 89% | 33% | 
2 | HRRIKAWLKKIKALARQLGVAA [MMI-0500] | 15% | 38% |  | 67% | 87% | 14% | 49% | 89% | 86% | 3% | 10% | 126%
3 | KAFAKLAARLYRKALARQLGVAA [MMI-0400] | 22% | 28% | 74% | 81% | 92% | 52% | 85% | 87% | 89% | 86% | 25% | 63%
4 | YARAAARQARAKALNRQLGVA [MMI-0200] | 74% | 131% | 72% | 100% |  | 88% | 98% | 96% | 98% | 100% | 78% | 153%
